Laboratory results from paper PMC8761706.
Several values for one entry are separate records, joined by “and”; a condition that tells them apart may be missing. Identical values can stand only once.

How the values were obtained:
[1] = biological target: fibrinogen fragment D (human); assay: fluorescence polarisation; competitive fluorescence anisotropy; unlabeled construct titrated into mixtures of fixed [5F]PR–(R1 → R7) with two frag D concentrations; cubic equation, fit together with the direct titrations
[2] = biological target: fibrinogen fragment D (human); assay: native gel or EMSA; incubated 30 min at 25 °C in 50 mM Hepes, 110 mM NaCl, 5 mM CaCl2, 1 mg/ml PEG-8000, 10 μM FFR-CK and FPR-CK with molar excess of frag D; 6% Tris–glycine gel without SDS, 4 °C; GelCode Blue and fluorescence
[3] = biological target: fibrinogen fragment D (human); assay: fluorescence polarisation; fluorescence anisotropy; [5F]PR–(R1 → R7) titrated with frag D; 'the same buffer'; quadratic fit, n not fixed; independent, noncooperative sites assumed
[4] = biological target: fibrinogen fragment D (human); assay: other fluorescence titration; fluorescein-labeled construct at fixed concentration titrated with frag D; fluorescence intensity; 25 °C; 50 mM Hepes, 110 mM NaCl, 5 mM CaCl2, 1 mg/ml PEG-8000, pH 7.4, 10 μM FPR-CK; quadratic fit; n fixed to 1 for the Ala constructs and MP
[5] = biological target: fibrinogen fragment D (human); assay: other fluorescence titration; fluorescence intensity; 20 mM sodium phosphate, 150 mM NaCl, 1 mg/ml PEG-8000, 10 μM FPR-CK, pH 7.4; n fixed to 1
[6] = biological target: fibrinogen fragment D (human); assay: other fluorescence titration; fluorescence intensity; 20 mM sodium phosphate, 150 mM NaCl, 1 mg/ml PEG-8000, 10 μM FPR-CK, pH 7.0; n fixed to 1
[7] = biological target: staphylocoagulase SC(1–660), full-length (Staphylococcus aureus Newman D2 Tager 104); assay: native gel or EMSA; incubated 30 min at 25 °C in 50 mM Hepes, 110 mM NaCl, 5 mM CaCl2, 1 mg/ml PEG-8000, 10 μM FFR-CK and FPR-CK with molar excess of frag D; 6% Tris–glycine gel without SDS, 4 °C; GelCode Blue and fluorescence
[8] = biological target: fibrinogen fragment D fragment D (Homo sapiens) (UniProt P02671); conditions: cited from earlier work
Chain of fibrinogen fragment D fragment D (Homo sapiens) (P02671 20-866, chain 1 of 3): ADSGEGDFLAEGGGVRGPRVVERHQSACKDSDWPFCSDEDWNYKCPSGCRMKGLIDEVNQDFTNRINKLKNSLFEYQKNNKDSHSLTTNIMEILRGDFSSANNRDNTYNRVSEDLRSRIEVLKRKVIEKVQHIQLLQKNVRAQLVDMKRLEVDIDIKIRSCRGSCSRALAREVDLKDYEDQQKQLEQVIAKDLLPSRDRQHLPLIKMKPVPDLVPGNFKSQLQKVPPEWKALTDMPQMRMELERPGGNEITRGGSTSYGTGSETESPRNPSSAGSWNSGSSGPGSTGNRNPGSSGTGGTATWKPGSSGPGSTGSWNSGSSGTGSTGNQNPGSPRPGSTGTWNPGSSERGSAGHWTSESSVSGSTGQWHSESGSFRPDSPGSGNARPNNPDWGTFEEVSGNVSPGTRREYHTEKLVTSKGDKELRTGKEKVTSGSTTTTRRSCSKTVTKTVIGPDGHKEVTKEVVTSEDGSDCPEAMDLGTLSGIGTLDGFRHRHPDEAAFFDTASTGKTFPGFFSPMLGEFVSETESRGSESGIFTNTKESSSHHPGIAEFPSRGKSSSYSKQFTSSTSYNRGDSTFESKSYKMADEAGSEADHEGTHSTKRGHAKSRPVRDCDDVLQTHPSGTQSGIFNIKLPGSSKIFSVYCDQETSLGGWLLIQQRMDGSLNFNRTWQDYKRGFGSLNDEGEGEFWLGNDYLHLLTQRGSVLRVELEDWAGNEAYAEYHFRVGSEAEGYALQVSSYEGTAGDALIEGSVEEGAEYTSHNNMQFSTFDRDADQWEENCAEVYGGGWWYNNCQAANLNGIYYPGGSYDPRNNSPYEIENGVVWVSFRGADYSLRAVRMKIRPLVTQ
Chain of fibrinogen fragment D fragment D (Homo sapiens) (P02675 31-491, chain 2 of 3, further chain): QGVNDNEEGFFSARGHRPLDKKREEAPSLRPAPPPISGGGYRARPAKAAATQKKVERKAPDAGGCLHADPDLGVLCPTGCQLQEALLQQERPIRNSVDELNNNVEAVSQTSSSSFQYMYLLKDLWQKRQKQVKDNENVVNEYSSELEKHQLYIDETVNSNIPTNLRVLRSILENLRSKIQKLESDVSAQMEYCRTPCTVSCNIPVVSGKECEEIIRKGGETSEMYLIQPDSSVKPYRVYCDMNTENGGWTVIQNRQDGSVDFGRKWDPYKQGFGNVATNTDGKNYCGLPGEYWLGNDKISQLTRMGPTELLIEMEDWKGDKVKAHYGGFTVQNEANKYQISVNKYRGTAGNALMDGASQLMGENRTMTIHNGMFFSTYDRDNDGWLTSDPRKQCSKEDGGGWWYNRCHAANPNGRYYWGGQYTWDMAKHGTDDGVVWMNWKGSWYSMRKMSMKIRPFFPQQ
Chain of fibrinogen fragment D fragment D (Homo sapiens) (P02679 27-453, chain 3 of 3, further chain): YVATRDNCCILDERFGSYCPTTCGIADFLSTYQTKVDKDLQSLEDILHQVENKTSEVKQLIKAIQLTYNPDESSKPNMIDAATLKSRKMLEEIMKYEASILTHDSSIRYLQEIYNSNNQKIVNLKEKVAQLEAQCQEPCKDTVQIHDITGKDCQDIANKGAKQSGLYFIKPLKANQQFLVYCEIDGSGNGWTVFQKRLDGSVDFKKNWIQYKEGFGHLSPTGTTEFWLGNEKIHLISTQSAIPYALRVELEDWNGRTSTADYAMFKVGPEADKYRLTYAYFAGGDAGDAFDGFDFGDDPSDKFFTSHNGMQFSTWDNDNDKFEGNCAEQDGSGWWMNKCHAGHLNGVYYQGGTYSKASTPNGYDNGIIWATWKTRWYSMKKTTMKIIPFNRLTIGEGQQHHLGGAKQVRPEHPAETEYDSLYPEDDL

Question: Which stoichiometry N (mol frag D/mol repeat) [1] does the source give for “PR–R1R2R3 (unlabeled competitor) (domain or fragment)” here?
Answer: 3.3 and 3.5 and 2.5

Question: Which Kd [1] does the source give for “PR–R1R6R7 (unlabeled competitor) (domain or fragment)” here?
Answer: 8 nM

Question: And the stoichiometry N (mol frag D/mol repeat) [1]?
Answer: 3

Question: With “PR–R3R4R7 (unlabeled competitor) (domain or fragment)” as the substance, how does the Kd [1] read?
Answer: 42 nM

Question: And the stoichiometry N (mol frag D/mol repeat) [1]?
Answer: 2.8

Question: With “PR–R3R6R7 (unlabeled competitor) (domain or fragment)” as the substance, how does the Kd [1] read?
Answer: 42 nM

Question: What about the stoichiometry N (mol frag D/mol repeat) [1] of the same substance?
Answer: 3

Question: For “[5F]PR–(R1 → R7), full-length C-terminal repeat construct (domain or fragment)”, which stoichiometry N (frag D per construct) [2] is on record?
Answer: 7

Question: What about the stoichiometry N (mol frag D/mol repeat) [3] of the same substance?
Answer: 5.2 and 4.8 and 5.1

Question: For [5F]PR–R1 (domain or fragment), which stoichiometry N (mol frag D/mol repeat) [4] is on record?
Answer: 1

Question: With [5F]PR–R1R2R3 (domain or fragment) as the substance, how does the stoichiometry N (frag D per construct) [2] read?
Answer: 3

Question: With [5F]PR–R1R6R7 (domain or fragment) as the substance, how does the stoichiometry N (frag D per construct) [2] read?
Answer: 3

Question: Which Kd [4] does the source give for [5F]PR–R2 (domain or fragment) here?
Answer: 130 nM

Question: What about the stoichiometry N (mol frag D/mol repeat) [4] of the same substance?
Answer: 0.9

Question: For [5F]PR–R3 (domain or fragment), which Kd [4] is on record?
Answer: 99 nM

Question: And the stoichiometry N (mol frag D/mol repeat) [4]?
Answer: 1.1

Question: What does the source list for [5F]PR–R6 (domain or fragment)?
Answer: Kd [4]: 115 nM; stoichiometry N (mol frag D/mol repeat) [4]: 0.8

Question: Which Kd [5] does the source give for [5F]PR–R7 (domain or fragment) here?
Answer: 27 nM

Question: What about the Kd [6] of the same substance?
Answer: 3000 nM

Question: And the Kd [4]?
Answer: 112 nM

Question: What about the stoichiometry N (mol frag D/mol repeat) [4] of the same substance?
Answer: 0.8

Question: With [5F]PR–R7-SETNA (domain or fragment) as the substance, how does the Kd [4] read?
Answer: 120 nM

Question: For “[5F]ProT, prothrombin labeled at the active site with 5-fluorescein (natural protein)”, which stoichiometry N [7] is on record?
Answer: 1 mol/mol

Question: With “staphylocoagulase PR-R1 (from UniProt P07767)” as the substance, how does the Kd [8] read?
Answer: 36 nM

Question: Which stoichiometry N (frag D per SC(1–660)) [2] does the source give for “staphylocoagulase SC(1–660), full-length (natural protein)” here?
Answer: 5 and 6
